# Experimental data as given in patent publication US20220064291A1 (Merck Sharp & Dohme, published 2022).
# B1: Antibody 3A (antibody, IgG1, V domains shown)
# VH: QVQLVQSGAEVKKPGASVKVSCKASGYTFTSYYMHWVRQAPGQGLEWMGIINPGGGSTSYAQKFQGRVTMTRDTSTSTVYMELSSLRSEDTAVYYCARDAGHDYGDMAYWGQGTLVTVSS
# VL: DIQMTQSPSTLSASVGDRVTITCRASQSISSWLAWYQQKPGKAPKLLIYKASSLESGVPSRFSGSGSGTEFTLTISSLQPDDFATYYCQQYRSFPTFGGGTKVEIK
# notes: isotype hIgG1-297A (IgG1 N297A); kappa germline VK1-05.6
# B2: Antibody 2L (antibody, IgG1, V domains shown)
# VH: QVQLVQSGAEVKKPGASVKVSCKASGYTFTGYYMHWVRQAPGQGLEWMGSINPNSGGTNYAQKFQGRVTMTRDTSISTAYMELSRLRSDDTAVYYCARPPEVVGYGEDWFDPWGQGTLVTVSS
# VL: DIQMTQSPSSVSASVGDRVTITCRASQGISSWLAWYQQKPGKAPKLLIYAASNLQSGVPSRFSGSGSGTDFTLTISSLQPEDFATYYCQQGNDLPITFGGGTKVEIK
# notes: isotype hIgG1-297A (IgG1 N297A); kappa germline VK1-12.7
# B3: Antibody 1F (antibody, IgG1, V domains shown)
# VH: QVQLQESGPGLVKPSQTLSLTCTVSGGSISSGGYYWSWIRQHPGKGLEWIGSIYYSGSTYYNPSLKSRVTISVDTSKNQFSLKLSSVTAADTAVYYCARLHSSQSSSTYWGQGTLVTVSS
# VL: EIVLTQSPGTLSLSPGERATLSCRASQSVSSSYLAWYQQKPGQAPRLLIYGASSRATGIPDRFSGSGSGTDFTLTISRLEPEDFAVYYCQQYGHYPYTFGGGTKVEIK
# notes: isotype hIgG1-297A (IgG1 N297A); kappa germline VK3-20.0
# B4: BTN3A1-Fc (recombinant human BTN3A1 Fc-chimera, HEK293-expressed, R&D Systems) (Fc fusion, not shown: a dimerising Fc or GST)
# chain: not shown
# B5: Antibody 1G (antibody, IgG1, V domains shown)
# VH: QVQLVQSGAEVKKPGASVKVSCKASGYTFTSYGISWVRQAPGQGLEWMGWISAYNGNTNYAQKLQGRVTMTTDTSTSTAYMELRSLRSDDTAVYYCARLGATVAYFDLWGRGTLVTVSS
# VL: EIVLTQSPATLSVSPGERATLSCRASQSVSSNLAWYQQKPGQAPRLLIYGASTRATGIPARFSGSGSGTEFTLTISSLQSEDFAVYYCQQDVYWPFTFGGGTKVEIK
# notes: isotype hIgG1-297A (IgG1 N297A); kappa germline VK3-15.10
# B6: Antibody 3B (antibody, IgG1, V domains shown)
# VH: QVQLVQSGAEVKKPGASVKVSCKASGYTFTSYYMHWVRQAPGQGLEWMGIINPSGGSTSYAQKFQGRVTMTRDTSTSTVYMELSSLRSEDTAVYYCARPSGDYSGYDALDVWGQGTMVTVSS
# VL: EIVLTQSPATLSLSPGERATLSCRASQSVSSYLAWYQQKPGQAPRLLIYDASNRATGIPARFSGSGSGTDFTLTISSLEPEDFAVYYCQQDPYWPITFGGGTKVEIK
# notes: isotype hIgG1-297A (IgG1 N297A); kappa germline VK3-11.0
# B7: Antibody 2A (antibody, IgG1, V domains shown)
# VH: QVQLVQSGAEVKKPGASVKVSCKASGYTFTSYYIHWVRQAPGQGLEWMGIINPSGGSTSYAQKFQGRVTMTRDTSTSTVYMELSSLRSEDTAVYYCARATWEALHYWGQGTLVTVSS
# VL: EIVMTQSPATLSVSPGERATLSCRASQSVGSNLAWYQQKPGQAPRLLIYGASTRATGIPARFSGSGSGTEFTLTISSLQSEDFAVYYCQQYYAWPRTFGGGTKVEIK
# notes: isotype hIgG1-297A (IgG1 N297A); kappa germline VK3-15.1
# Experiments:
# [1] = target: T1, BTN3A3-Fc (recombinant human BTN3A3 Fc-chimera, HEK293-expressed, R&D Systems) (human, UniProt O00478 30-248); experiment: binding affinity, method not stated (Octet named in text)
# T1 construct: Bought Fc-chimera; Biotinylated for the yeast display selections; not shown: Fc part of the bought Fc-chimera
# T1 sequence (O00478 30-248, change not shown): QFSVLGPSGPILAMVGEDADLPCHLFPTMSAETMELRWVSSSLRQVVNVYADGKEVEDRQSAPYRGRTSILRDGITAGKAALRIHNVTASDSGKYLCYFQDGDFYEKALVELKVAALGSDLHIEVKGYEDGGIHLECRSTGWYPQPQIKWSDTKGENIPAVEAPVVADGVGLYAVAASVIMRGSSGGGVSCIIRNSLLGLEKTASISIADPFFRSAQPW
# [2] = target: B4; experiment: as above
# [3] = target: T2, BTN3A2-Fc (recombinant human BTN3A2 Fc-chimera, HEK293-expressed, R&D Systems) (human, UniProt P78410 30-248); experiment: Octet isoform binding screen
# T2 construct: Bought Fc-chimera; Biotinylated for the yeast display selections; not shown: Fc part of the bought Fc-chimera
# T2 sequence (P78410 30-248, change not shown): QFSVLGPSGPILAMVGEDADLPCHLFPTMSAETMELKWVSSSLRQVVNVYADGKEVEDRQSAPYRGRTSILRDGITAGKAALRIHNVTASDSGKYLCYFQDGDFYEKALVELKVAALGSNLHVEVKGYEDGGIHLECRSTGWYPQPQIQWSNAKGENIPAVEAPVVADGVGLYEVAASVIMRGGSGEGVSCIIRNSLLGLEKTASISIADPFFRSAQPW
# [4] = target: T3, BTN2A2-Fc (recombinant human BTN2A2 Fc-chimera, HEK293-expressed, R&D Systems) (human, UniProt Q8WVV5 33-265); experiment: Octet isoform binding screen
# T3 construct: Bought Fc-chimera; Biotinylated for the yeast display selections; not shown: Fc part of the bought Fc-chimera
# T3 sequence (looked up): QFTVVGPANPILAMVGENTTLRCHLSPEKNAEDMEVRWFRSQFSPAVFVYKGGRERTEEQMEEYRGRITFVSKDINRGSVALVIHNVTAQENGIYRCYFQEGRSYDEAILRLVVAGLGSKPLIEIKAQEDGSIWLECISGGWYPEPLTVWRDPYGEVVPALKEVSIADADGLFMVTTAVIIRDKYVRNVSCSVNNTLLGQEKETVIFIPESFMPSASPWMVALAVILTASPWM
# [5] = target: T1, BTN3A3-Fc (recombinant human BTN3A3 …); experiment: Octet isoform binding screen
# [6] = target: anti-BTN3A antibody (clone 20.1, Biolegend, catalog #342702); experiment: cell-based or functional assay
# [7] = target: T2, BTN3A2-Fc (recombinant human BTN3A2 …); experiment: binding affinity, method not stated (Octet named in text)
Binder,Kd [1],Kd [2],binding result [3],binding result [4],binding result [5],IC50 (read off the curve): inhibition of 20.1-mediated reactivation of latent HIV (luciferase RLU) [6],Kd [7]
B1,1.4 nM,2.76 nM,no binding,no binding,,,
B2,,3.94 nM,no binding,no binding,no binding,,
B3,,1.53 nM,no binding,no binding,no binding,,
B4,,,,,,~0.2 µg/mL,
B5,1.13 nM,0.974 nM,,no binding,,,2.71 nM
B6,2.08 nM,2.1 nM,,no binding,,,4.57 nM
B7,8.52 nM,4.38 nM,no binding,no binding,,,
